For assay [1], the target named is T1, HER2 (UniProt P04626 23-652, limits assumed).
T1 construct: also called receptor tyrosine-protein kinase erbB-2
Description: saturation binding curve, CPM against Her 2 (nM), 0 to 50 nM, plateau about 470 CPM; the text does not name the assay [upper left graph].

Assay [2] deals with T1, HER2. Description: saturation binding curve, CPM against Her 2 (nM), 0 to 50 nM, plateau about 470 CPM; the text does not name the assay [left graph].
The target in assay [3] is T1, HER2. Description: surface plasmon resonance (Biacore).
The target of assay [4] is T1, HER2. In words: surface plasmon resonance (Biacore Kinetics), table under the sensorgrams [table at the bottom].

B1: B8 anti-HER2 VH domain (other)
VH: EVQLVESGAEVKEPGASVKVSCKSSGYSFTGNYMHWVRQAPGQGLEWMGWMNPKSGGTYYAQKFQGRVTMTWDTSISTAYMELSGLTSDDTAVYYCARWARGSTSPHGLDVWGQGTLVTVSS
notes: Stand-alone antibody VH domain with no light chain; also called B8 VH domain; B8 VH
For B1, the Kd came out at 1.4 nM in the assay with HER2 [1], 1.4 nM in the assay with HER2 [2], 1.2 nM in the assay with HER2 [3] and 1.2 nM with HER2 [4]. Also, the kon with HER2 [3] and in the assay with HER2 [4] was 139000 M⁻¹ s⁻¹ in each case. Further, in the assay with HER2 [4], the koff was found to be 0.000167 s⁻¹.

The values are drawn from patent US20150299335A1 (X BODY, published 2015).
